Results reported in publication PMC10250827.
*1 amine or outer side, *2 acyl side, *3 side chain or, on linkers, in order; H or OH if unused. Glutaryl = O=C(CCCC(=O)[*:2])[*:1]; Suc = O=C(CCC(=O)[*:2])[*:1]

B1: CHP-028, pre-cyclic peptidomimetic CO-(CH2)2-CO2H KTGDEK-K-GG-…-NH2 (peptide)
peptide: Suc-KTGDEKKGGYGRKKRRQRRR-NH2
SMILES: C[C@@H](O)[C@H](NC(=O)[C@H](CCCCN)NC(=O)CCC(=O)O)C(=O)NCC(=O)N[C@@H](CC(=O)O)C(=O)N[C@@H](CCC(=O)O)C(=O)N[C@@H](CCCCN)C(=O)N[C@@H](CCCCN)C(=O)NCC(=O)NCC(=O)N[C@@H](Cc1ccc(O)cc1)C(=O)NCC(=O)N[C@@H](CCCNC(=N)N)C(=O)N[C@@H](CCCCN)C(=O)N[C@@H](CCCCN)C(=O)N[C@@H](CCCNC(=N)N)C(=O)N[C@@H](CCCNC(=N)N)C(=O)N[C@@H](CCC(N)=O)C(=O)N[C@@H](CCCNC(=N)N)C(=O)N[C@@H](CCCNC(=N)N)C(=O)N[C@@H](CCCNC(=N)N)C(N)=O
B2: CHP-027, pre-cyclic peptidomimetic CO-(CH2)3-CO2H KTGDEK-K-GG-…-NH2 (peptide)
peptide: Glutaryl-KTGDEKKGGYGRKKRRQRRR-NH2
SMILES: C[C@@H](O)[C@H](NC(=O)[C@H](CCCCN)NC(=O)CCCC(=O)O)C(=O)NCC(=O)N[C@@H](CC(=O)O)C(=O)N[C@@H](CCC(=O)O)C(=O)N[C@@H](CCCCN)C(=O)N[C@@H](CCCCN)C(=O)NCC(=O)NCC(=O)N[C@@H](Cc1ccc(O)cc1)C(=O)NCC(=O)N[C@@H](CCCNC(=N)N)C(=O)N[C@@H](CCCCN)C(=O)N[C@@H](CCCCN)C(=O)N[C@@H](CCCNC(=N)N)C(=O)N[C@@H](CCCNC(=N)N)C(=O)N[C@@H](CCC(N)=O)C(=O)N[C@@H](CCCNC(=N)N)C(=O)N[C@@H](CCCNC(=N)N)C(=O)N[C@@H](CCCNC(=N)N)C(N)=O

Columns and labels:
[1] = biological target: Heat shock protein 90 (Hsp90), protein immobilised on the FEB chip (UniProt P07900); assay: field effect biosensing
[2] = biological target: Heat shock protein 90 (Hsp90), protein immobilised on the FEB chip (UniProt P07900); assay: field effect biosensing; remark: listed apart in the source

Row | Molecule | KD in the presence of CHP-028 (competitive binding) [1] | Kd [2]
1 | Cell division cycle 37 (Cdc37), analyte protein in FEB (from UniProt Q16543 1-378) (natural protein) | 2.78 µM | 
2 | Ac-KTGDEKKGGYGRKKRRQRRR-NH2 [CHP-026, linear peptide CH3-CO-KTGDEK-K-GG-…-NH2] |  | 342 µM
3 | B1 |  | 16.4 µM
4 | B2 |  | 30 µM
